Measurements reported in US20210292422A1 (published 2021).

T1: LRP6E3E4 (UniProt O75581 631-1246)
T1 chain: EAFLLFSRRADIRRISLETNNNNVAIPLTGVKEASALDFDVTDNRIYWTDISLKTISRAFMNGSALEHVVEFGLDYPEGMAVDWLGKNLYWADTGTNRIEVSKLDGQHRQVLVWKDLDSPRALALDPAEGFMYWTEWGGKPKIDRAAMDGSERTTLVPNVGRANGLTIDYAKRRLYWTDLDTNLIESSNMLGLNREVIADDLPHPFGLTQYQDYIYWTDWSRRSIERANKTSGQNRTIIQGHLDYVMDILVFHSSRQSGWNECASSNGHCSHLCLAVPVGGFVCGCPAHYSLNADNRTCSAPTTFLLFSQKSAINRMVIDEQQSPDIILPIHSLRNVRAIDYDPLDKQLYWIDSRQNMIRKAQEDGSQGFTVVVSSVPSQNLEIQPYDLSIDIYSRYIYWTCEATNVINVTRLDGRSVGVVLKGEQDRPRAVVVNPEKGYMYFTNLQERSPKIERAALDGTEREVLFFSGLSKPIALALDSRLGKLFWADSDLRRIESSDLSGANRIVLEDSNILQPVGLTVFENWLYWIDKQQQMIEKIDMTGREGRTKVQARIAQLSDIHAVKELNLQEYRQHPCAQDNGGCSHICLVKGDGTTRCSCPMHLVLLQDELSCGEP

T2: LRP6E1E2 (UniProt O75581 20-630)
T2 chain: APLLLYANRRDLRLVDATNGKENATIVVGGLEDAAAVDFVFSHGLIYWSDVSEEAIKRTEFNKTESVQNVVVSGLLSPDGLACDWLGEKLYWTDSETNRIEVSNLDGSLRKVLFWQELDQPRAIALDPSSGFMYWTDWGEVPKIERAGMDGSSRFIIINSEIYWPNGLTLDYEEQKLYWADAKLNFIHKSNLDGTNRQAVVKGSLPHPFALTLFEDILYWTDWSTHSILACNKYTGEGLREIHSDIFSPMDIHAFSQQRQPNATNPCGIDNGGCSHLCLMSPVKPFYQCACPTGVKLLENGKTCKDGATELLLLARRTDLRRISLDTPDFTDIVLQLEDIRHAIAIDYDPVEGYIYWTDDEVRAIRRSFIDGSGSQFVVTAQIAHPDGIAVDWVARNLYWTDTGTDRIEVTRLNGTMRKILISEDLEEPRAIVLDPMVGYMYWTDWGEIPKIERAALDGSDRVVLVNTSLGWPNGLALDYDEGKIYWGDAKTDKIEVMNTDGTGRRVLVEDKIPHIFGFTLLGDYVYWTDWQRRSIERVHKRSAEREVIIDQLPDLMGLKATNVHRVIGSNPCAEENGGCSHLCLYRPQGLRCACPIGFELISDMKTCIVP

B1: F1:5:αGFP:Fc (bispecific antibody)
chain: EVQLVESGGGLVQPGGSLRLSCAASGFTFSHYTLSWVRQAPGKGLEWVSVISGDGSYTYYADSVKGRFTISSDNSKNTLYLQMNSLRAEDTAVYYCARNFIKYVFANWGQGTLVTVSSGGGGSGGGGSGGGGSDIELTQPPSVSVAPGQTARISCSGDNIGSFYVHWYQQKPGQAPVLVIYDKSNRPSGIPERFSGSNSGNTATLTISGTQAEDEADYYCQSYANTLSLVFGGGTKLTVLGSGSGQVQLVESGGGLVQPGGSLRLSCAASGFTFSRYGMHWVRQAPGKGLEWVSGISSIGSNTYYADSVKGRFTISRDNSKNTLYLQMNSLRAEDTAVYYCARWYKTYIDVWGQGTLVTVSSGGGGSGGGGSGGGGSDIELTQPPSVSVAPGQTARISCSGDNLGKKYVYWYQQKPGQAPVLVIYGDDERPSGIPERFSGSNSGNTATLTISGTQAEDEADYYCASYDSSHILIVFGGGTKLTVLGSGSGDKTHTCPPCPAPEAAGGPSVFLFPPKPKDTLMISRTPEVTCVVVDVSHEDPEVKFNWYVDGVEVHNAKTKPREEQYNSTYRVVSVLTVLHQDWLNGKEYKCKVSNKALGAPIEKTISKAKGQPREPQVYTLPPSREEMTKNQVSLTCLVKGFYPSDIAVEWESNGQPENNYKTTPPVLDSDGSFFLYSKLTVDKSRWQQGNVFSCSVMHEALHNHYTQKSLSLSPGK
B2: L2:5:αGFP:Fc (bispecific antibody)
chain: EVQLVESGGGLVQPGGSLRLSCAASGFTFTSYYISWVRQAPGKGLEWVAEISPYSGSTYYADSVKGRFTISADTSKNTAYLQMNSLRAEDTAVYYCALRARPPIRLHPRGSVMDYWGQGTLVTVSSGSAASGSSGGSSSGADIQMTQSPSSLSASVGDRVTITCRASQDVSTAVAWYQQKPGKAPKLLIYSASFLYSGVPSRFSGSGSGTDFTLTISSLQPEDFATYYCQQSYTTPPTFGQGTKVEIKGSGSGQVQLVESGGGLVQPGGSLRLSCAASGFTFSRYGMHWVRQAPGKGLEWVSGISSIGSNTYYADSVKGRFTISRDNSKNTLYLQMNSLRAEDTAVYYCARWYKTYIDVWGQGTLVTVSSGGGGSGGGGSGGGGSDIELTQPPSVSVAPGQTARISCSGDNLGKKYVYWYQQKPGQAPVLVIYGDDERPSGIPERFSGSNSGNTATLTISGTQAEDEADYYCASYDSSHILIVFGGGTKLTVLGSGSGDKTHTCPPCPAPEAAGGPSVFLFPPKPKDTLMISRTPEVTCVVVDVSHEDPEVKFNWYVDGVEVHNAKTKPREEQYNSTYRVVSVLTVLHQDWLNGKEYKCKVSNKALGAPIEKTISKAKGQPREPQVYTLPPSREEMTKNQVSLTCLVKGFYPSDIAVEWESNGQPENNYKTTPPVLDSDGSFFLYSKLTVDKSRWQQGNVFSCSVMHEALHNHYTQKSLSLSPGK
B3: L1:5:αGFP:Fc (bispecific antibody)
chain: DVKLVESGGGLVKLGGSLRLSCAASGFSFSTSYMSWVRQTPEKRLELVAAINLNGGSTYYSDTVKGRFTISRDNAKNTLYLQMSSLKSEDTAFYYCASELAGYGTPFAYWGQGTLVTVSAGSAASGSSGGSSSGADIVLTQSPATLSVTPGDSVSLSCKASQSISYNLHWYQQKSHESPRLLIKYTSQSISGIPSRFSGSGSGTDFTLTINNVETEDFGMYFCQQSNSWPLTFGAGTKLEVKGSGSGQVQLVESGGGLVQPGGSLRLSCAASGFTFSRYGMHWVRQAPGKGLEWVSGISSIGSNTYYADSVKGRFTISRDNSKNTLYLQMNSLRAEDTAVYYCARWYKTYIDVWGQGTLVTVSSGGGGSGGGGSGGGGSDIELTQPPSVSVAPGQTARISCSGDNLGKKYVYWYQQKPGQAPVLVIYGDDERPSGIPERFSGSNSGNTATLTISGTQAEDEADYYCASYDSSHILIVFGGGTKLTVLGSGSGDKTHTCPPCPAPEAAGGPSVFLFPPKPKDTLMISRTPEVTCVVVDVSHEDPEVKFNWYVDGVEVHNAKTKPREEQYNSTYRVVSVLTVLHQDWLNGKEYKCKVSNKALGAPIEKTISKAKGQPREPQVYTLPPSREEMTKNQVSLTCLVKGFYPSDIAVEWESNGQPENNYKTTPPVLDSDGSFFLYSKLTVDKSRWQQGNVFSCSVMHEALHNHYTQKSLSLSPGK
B4: αGFP:5:L2:Fc (bispecific antibody)
chain: QVQLVESGGGLVQPGGSLRLSCAASGFTFSRYGMHWVRQAPGKGLEWVSGISSIGSNTYYADSVKGRFTISRDNSKNTLYLQMNSLRAEDTAVYYCARWYKTYIDVWGQGTLVTVSSGGGGSGGGGSGGGGSDIELTQPPSVSVAPGQTARISCSGDNLGKKYVYWYQQKPGQAPVLVIYGDDERPSGIPERFSGSNSGNTATLTISGTQAEDEADYYCASYDSSHILIVFGGGTKLTVLGSGSGEVQLVESGGGLVQPGGSLRLSCAASGFTFTSYYISWVRQAPGKGLEWVAEISPYSGSTYYADSVKGRFTISADTSKNTAYLQMNSLRAEDTAVYYCALRARPPIRLHPRGSVMDYWGQGTLVTVSSGSAASGSSGGSSSGADIQMTQSPSSLSASVGDRVTITCRASQDVSTAVAWYQQKPGKAPKLLIYSASFLYSGVPSRFSGSGSGTDFTLTISSLQPEDFATYYCQQSYTTPPTFGQGTKVEIKGSGSGDKTHTCPPCPAPEAAGGPSVFLFPPKPKDTLMISRTPEVTCVVVDVSHEDPEVKFNWYVDGVEVHNAKTKPREEQYNSTYRVVSVLTVLHQDWLNGKEYKCKVSNKALGAPIEKTISKAKGQPREPQVYTLPPSREEMTKNQVSLTCLVKGFYPSDIAVEWESNGQPENNYKTTPPVLDSDGSFFLYSKLTVDKSRWQQGNVFSCSVMHEALHNHYTQKSLSLSPGK
B5: αGFP:5:F1:Fc (bispecific antibody)
chain: QVQLVESGGGLVQPGGSLRLSCAASGFTFSRYGMHWVRQAPGKGLEWVSGISSIGSNTYYADSVKGRFTISRDNSKNTLYLQMNSLRAEDTAVYYCARWYKTYIDVWGQGTLVTVSSGGGGSGGGGSGGGGSDIELTQPPSVSVAPGQTARISCSGDNLGKKYVYWYQQKPGQAPVLVIYGDDERPSGIPERFSGSNSGNTATLTISGTQAEDEADYYCASYDSSHILIVFGGGTKLTVLGSGSGEVQLVESGGGLVQPGGSLRLSCAASGFTFSHYTLSWVRQAPGKGLEWVSVISGDGSYTYYADSVKGRFTISSDNSKNTLYLQMNSLRAEDTAVYYCARNFIKYVFANWGQGTLVTVSSGGGGSGGGGSGGGGSDIELTQPPSVSVAPGQTARISCSGDNIGSFYVHWYQQKPGQAPVLVIYDKSNRPSGIPERFSGSNSGNTATLTISGTQAEDEADYYCQSYANTLSLVFGGGTKLTVLGSGSGDKTHTCPPCPAPEAAGGPSVFLFPPKPKDTLMISRTPEVTCVVVDVSHEDPEVKFNWYVDGVEVHNAKTKPREEQYNSTYRVVSVLTVLHQDWLNGKEYKCKVSNKALGAPIEKTISKAKGQPREPQVYTLPPSREEMTKNQVSLTCLVKGFYPSDIAVEWESNGQPENNYKTTPPVLDSDGSFFLYSKLTVDKSRWQQGNVFSCSVMHEALHNHYTQKSLSLSPGK

Key:
Assay in all cases: BLI (Octet)
Frizzled 1 (Fzd1) = Frizzled 1 (Fzd1) (UniProt Q9UP38 111-230)
LRP6E3E4 = molecular target: T1, LRP6E3E4
LRP6E1E2 = molecular target: T2, LRP6E1E2

Row | Binder | Kd (Frizzled 1 (Fzd1)) | Kd (LRP6E3E4) | further results
1 | B1 | 0.2 nM | – | –
2 | B2 | – | 0.5 nM | –
3 | B3 | – | – | Kd (LRP6E1E2): 16 nM
4 | B4 | – | 0.8 nM | –
5 | B5 | 2.5 nM | – | –
